Values of other authors in article PMC4746476.

Molecular target: CCL21 (Homo sapiens) (UniProt O00585)
Chain of UniProt O00585 (O00585 24-134): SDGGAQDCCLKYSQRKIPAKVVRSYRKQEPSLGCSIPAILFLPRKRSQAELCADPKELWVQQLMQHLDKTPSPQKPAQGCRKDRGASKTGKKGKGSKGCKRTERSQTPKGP

CCR7 (from UniProt P32248)
Kd: 10 nM
